Experimental data from article PMC5590881, “Xenon for tunnelling analysis of the efflux pump component OprN” (PLoS ONE, 2017).

Biological target: the molecule itself
Assay: crystal structure; OprN-wt crystals and OprN-Xe crystals (OprN-wt crystals under 2 MPa xenon), space group I4, T = 100 K; grown at 18°C in 100 mM sodium acetate pH 5.4, 0.8–1.1 M sodium formate, 9–11% PEG 4000; protein in 0.9% β-OG

B1: OprN, the outer membrane channel of the MexEF efflux pump from Pseudomonas aeruginosa (natural protein)
chain: CTVGPDYRTPDTAAAKIDATASKPYDRSRFESLWWKQFDDPTLNQLVEQSLSGNRDLRVAFARLRAARALRDDVANDRFPVVTSRASADIGKGQQPGVTEDRVNSERYDLGLDSAWELDLFGRIRRQLESSDALSEAAEADLQQLQVSLIAELVDAYGQLRGAQLREKIALSNLENQKESRQLTEQLRDAGVGAELDVLRADARLAATAASVPQLQAEAERARHRIATLLGQRPEELTVDLSPRDLPAITKALPIGDPGELLRRRPDIRAAERRLAASTADVGVATADLFPRVSLSGFLGFTAGRGSQIGSSAARAWSVGPSISWAAFDLGSVRARLRGAKADADAALASYEQQVLLALEESANAFSDYGKRQERLVSLVRQSEASRAAAQQAAIRYREGTTDFLVLLDAEREQLSAEDAQAQAEVELYRGIVAIYRSLGGGWQPSA
modifications: palmitoylation at the N-terminus Cys residue (dual acylation observed at the same cysteine)
notes: OprN, outer membrane factor of the MexEF-OprN efflux pump, Pseudomonas aeruginosa; the oprN gene was cloned; the chain in the crystal begins at the acylated Cys; 1341 amino acids built in the trimer; Homotrimer in the crystal (chains A, B, C); also called OprN-wt; OprN-Xe; source: C43-ΔacrB strain, pBAD-33, purified from the outer membrane (DDM, β-OG; Ni-NTA, Superose 6 SEC); not shown: His6, …
stoichiometry N: 3
